This note sets out measurements from patent US20150166611A1.

Assay [1] has as its target wild-type HIV-1NL4-3 Env (unlabeled gp120 protomers of the trimer on virions) (HIV-1 NL4-3). Put plainly: intermolecular smFRET; CD4 bound to an unlabeled gp120 of the trimer, donor Cy3 on the neighbouring labelled gp120.
Assay [2] concerns the target HIV-1 Env (NL4-3) labeled with Cy3 at the LV4-2-A1 loop insertion, on virions (HIV-1 NL4-3). Put plainly: intermolecular smFRET; high-FRET state assigned to CD4 bound to the Cy3-labelled gp120.

In assay [1], “Cy5-labeled soluble CD4(C92) (D1-D2) (from UniProt P01730 26-208) (receptor)” showed an FRET state (intermediate) (FRET efficiency) of 0.3 and an FRET state (low) (FRET efficiency) of 0.2. This substance also gave an FRET state (high) (FRET efficiency) in assay [2] of 0.85.
